Laboratory results: doi:10.1101/2023.08.11.552962

Assays:
[1] = target: MacMCM, minichromosome maintenance protein from Mancarchaeum acidiphilum (Mancarchaeum acidiphilum); assay: SEC
[2] = target: MacMCM^E391Q, Walker B mutant of MacMCM (Mancarchaeum acidiphilum); assay: SEC
[3] = target: MacMCM^ΔWHD.E391Q, MacMCM without the winged helix domain and with the Walker B mutation E391Q (Mancarchaeum acidiphilum); assay: crystal structure
[4] = target: MacMCM^ΔWHD.E391Q, MacMCM without the winged helix domain and with the Walker B mutation E391Q (Mancarchaeum acidiphilum); assay: SEC

A stoichiometry N [1] of 6 was found for “MacMCM, minichromosome maintenance protein from Mancarchaeum acidiphilum (enzyme)” in this work.
A stoichiometry N [2] of 6 was found for “MacMCM^E391Q, Walker B mutant of MacMCM (enzyme)” in this work.
A stoichiometry N [3] of 6 and a stoichiometry N [4] of 6 were found for “MacMCM^ΔWHD.E391Q, MacMCM without the winged helix domain and with the Walker B mutation E391Q (domain or fragment)” in this work.
